This assay concerns the target T1, M. tb ParB with C-terminal 6xHis-tag (M. tuberculosis, UniProt P9WIJ9 1-344).
T1 sequence: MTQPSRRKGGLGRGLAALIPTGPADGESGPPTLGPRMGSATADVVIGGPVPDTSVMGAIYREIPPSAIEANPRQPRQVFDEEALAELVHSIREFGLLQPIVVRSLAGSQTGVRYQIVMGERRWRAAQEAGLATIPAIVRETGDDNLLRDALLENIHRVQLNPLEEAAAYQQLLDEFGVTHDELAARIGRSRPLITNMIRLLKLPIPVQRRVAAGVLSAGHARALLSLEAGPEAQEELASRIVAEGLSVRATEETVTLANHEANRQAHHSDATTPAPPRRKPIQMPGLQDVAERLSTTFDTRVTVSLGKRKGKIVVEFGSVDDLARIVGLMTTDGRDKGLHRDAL
Nature of the assay: pull-down.

B1: GST-Rv1708 (natural protein)
chain: MPAGLPGQASVAVRLSCDVPPDARHHEPRPGMTDHPDTGNGIGLTGRPPRAIPDPAPRSSHGPAKVIAMCNQKGGVGKTTSTINLGAALGEYGRRVLLVDMDPQGALSAGLGVPHYELDKTIHNVLVEPRVSIDDVLIHSRVKNMDLVPSNIDLSAAEIQLVNEVGREQTLARALYPVLDRYDYVLIDCQPSLGLLTVNGLACTDGVIIPTECEFFSLRGLALLTDTVDKVRDRLNPKLDISGILITRYDPRTVNSREVMARVVERFGDLVFDTVITRTVRFPETSVAGEPITTWAPKSAGALAYRALARELIDRFGM
B1: the binding result was “binds”.

These data come from paper doi:10.1101/2023.03.20.533423 (bioRxiv, 2023).
